Results reported in US20220153832A1 (PIONYR IMMUNOTHERAPEUTICS, published 2022).
Substitutions are numbered along the chain they refer to. Values belong to the binder of their own block, whether it stands above or below them.

Columns and labels:
[1] = molecular target: T1, Mouse MARCO, full length, on cells (mouse, UniProt Q60754 1-518); assay: flow cytometry, 293T cells expressing mouse MARCO
T1 construct: whole, on cells; the cell type is named under assay; also called muMARCO; MuMARCO
T1 sequence (looked up): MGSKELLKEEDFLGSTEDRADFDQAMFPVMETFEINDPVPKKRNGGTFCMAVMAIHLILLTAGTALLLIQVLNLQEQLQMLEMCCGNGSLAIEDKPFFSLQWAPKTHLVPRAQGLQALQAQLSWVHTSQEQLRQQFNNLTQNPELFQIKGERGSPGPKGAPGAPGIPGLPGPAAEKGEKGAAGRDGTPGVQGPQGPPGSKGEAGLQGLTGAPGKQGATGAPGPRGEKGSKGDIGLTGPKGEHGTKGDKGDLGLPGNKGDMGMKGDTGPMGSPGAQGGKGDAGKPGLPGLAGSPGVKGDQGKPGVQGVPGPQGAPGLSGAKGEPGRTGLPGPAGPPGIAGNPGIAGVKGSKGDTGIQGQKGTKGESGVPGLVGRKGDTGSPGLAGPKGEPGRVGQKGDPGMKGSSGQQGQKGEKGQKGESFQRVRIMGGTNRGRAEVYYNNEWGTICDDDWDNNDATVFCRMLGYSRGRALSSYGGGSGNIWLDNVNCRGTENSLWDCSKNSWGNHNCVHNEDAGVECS
Description: Supernatants were removed and cell pellets were resuspended in Ca²⁺+ and Mg²⁺+ Dulbecco's phosphate-buffered saline (D-PBS) at 1×10⁶ cells/ml. 100,000 cells/well were plated onto U-bottom 96-well plates for staining and all centrifugation steps were performed at 1500 rpm at 4° C. for 5 min and samples were kept protected from light throughout the protocol. Cells were pelleted and resuspended in 100 μl of Zombie NIR viability dye (BioLegend) prepared by diluting Zombie NIR dimethyl sulfoxide (DMSO) stock 1000-fold in D-PBS. […] Flow cytometry data were analyzed using FlowJo software (version 10.6.1) and data were processed and further analyzed in Microsoft Excel and GraphPad Prism software (version 8). Half-maximal effective concentrations (EC₅₀) were calculated based on geometric mean fluorescence intensities (gMFI). In case when the plates were not able to be analyzed on the cytometer, cells were pelleted after the washes and fixed in 100 μl of 2% paraformaldehyde (PFA), prepared by diluting the 16% (w/v) stock (Thermo Fisher) in DPBS, for 15 min at RT. […]

[2] = molecular target: T2, N-terminally polyhistidine tagged human MARCO ECD (147-520), recombinant (human, UniProt Q9UEW3 147-520); assay: ELISA on recombinant human MARCO, 50 mM EDTA
T2 construct: also called PI-RG-3000; recombinant human MARCO; not shown: N-terminal polyhistidine tag
T2 sequence: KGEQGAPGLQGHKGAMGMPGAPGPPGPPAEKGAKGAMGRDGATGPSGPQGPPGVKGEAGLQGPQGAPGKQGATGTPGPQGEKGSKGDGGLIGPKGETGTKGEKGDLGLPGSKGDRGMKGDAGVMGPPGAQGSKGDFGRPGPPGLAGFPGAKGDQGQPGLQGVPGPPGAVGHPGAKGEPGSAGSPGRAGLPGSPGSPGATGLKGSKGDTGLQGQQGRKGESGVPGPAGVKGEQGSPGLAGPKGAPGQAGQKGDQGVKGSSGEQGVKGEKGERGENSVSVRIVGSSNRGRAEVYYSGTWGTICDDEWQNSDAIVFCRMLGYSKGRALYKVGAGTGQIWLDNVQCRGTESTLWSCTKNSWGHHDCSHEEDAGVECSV
Description: After the plates were incubated at room temperature for 1 hour or 4° C. overnight, the plates were wash 3 times with ELISA wash buffer (PBS/0.05% TWEEN-20), then hybridoma supernatant (1:5 dilution) or purified antibody (1 ug) was diluted in DPBS/Ca2+/2% FBS, DPBS without Ca2+/2 mM EDTA/2% FBS, DPBS without Ca2+/10 mM EDTA/2% FBS, and DPBS without Ca2+/50 mM EDTA/2% FBS. Plates again were incubated at room temperature for 1 hour.

[3] = molecular target: T3, human MARCO (R&D biosystems), recombinant, coated in the LDL competition assay (human, UniProt Q9UEW3 70-520, limits assumed); assay: LDL competition on coated human MARCO (MSD), competitor biotinylated hLDL
T3 construct: Bought protein
T3 sequence (looked up): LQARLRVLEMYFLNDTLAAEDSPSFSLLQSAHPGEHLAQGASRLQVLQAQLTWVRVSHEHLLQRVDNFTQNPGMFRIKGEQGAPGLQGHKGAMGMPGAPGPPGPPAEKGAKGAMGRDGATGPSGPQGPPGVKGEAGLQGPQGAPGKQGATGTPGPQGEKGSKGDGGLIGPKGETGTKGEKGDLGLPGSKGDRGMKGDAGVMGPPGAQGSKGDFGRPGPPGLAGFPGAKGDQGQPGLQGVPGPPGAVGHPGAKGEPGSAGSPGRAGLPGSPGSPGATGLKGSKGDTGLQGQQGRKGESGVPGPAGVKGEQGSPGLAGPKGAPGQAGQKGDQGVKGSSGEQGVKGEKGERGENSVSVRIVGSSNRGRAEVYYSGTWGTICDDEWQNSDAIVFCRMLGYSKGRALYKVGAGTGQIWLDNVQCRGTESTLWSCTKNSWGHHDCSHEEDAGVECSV
Description: A high-binding, 96-well MSD plate was coated with 4 μg/ml mouse MARCO or 4 μg/ml human MARCO (R&D biosystems). After the plate was blocked with PBST and 5% BSA for an hour, titrated anti-mouse or anti-human MARCO antibodies were added to the plate and incubated for 30 minutes. Biotinylated hLDL (860 pM or 2 μg/ml) were added to the antibody, and the antibody/LDL mixture was incubated for an hour to allow the mixture to reach binding equilibrium. The plates were washed and bound biotinylated LDL was detected with Sulfo-tagged streptavidin that generates an electrocheminlumenscent signal when read buffer is added and electricity is applied to the electrodes in the MSD plate. IC50's were calculated using a 4-parameter curve fit in GraphPad Prism software.

EC50 [1]: 0.47 to 0.75 nM
B1: PI-HX-3021 (antibody, V domains shown)
VH: QVRLVQSGTALVRPGASVRMSCTASGYSFTDYWVSWVKQSHGQSLEWIGEIYPNSGTTNFNEKFEGKATLTVDKSTSTAYMELSRLTSEDSAIYYCTGEGTFDYWGQGVMVTVSS
VL: EIVLTQSPTTMAASPGEKVTITCRPSSSLSNMHWFQQKSGTSPKPWIYDTSKLASGVPDRFSGSGSGTSYSLTISSMEAEDAATYYCLQRSSYPPTFGAGTKLELK
notes: Rat IgG2a hybridoma antibody; Not the effector dead PI-3021; also called PI-3007 (name of the recombinant form)

EC50 [1]: 0.36 to 0.59 nM
B2: PI-HX-3016 (antibody, rat IgG1, V domains shown)
VH: EVQLVESGGGLVKPGASLKLSCVASGFTFSDDWMNWVRQTPGKAMEWIGDIKYDGSYTNYVPSLKNRLTISRDNAKNTLYLQMTNVRSEDTATYYCTSGGVFDYWGQGVMVTVSS
VL: B1 VL with T5S, P25A, L29V, N31Y, S92G, L105V
notes: Rat IgG1 hybridoma antibody

ELISA signal (A450) [2]: 0.0754
B3: PI-HX-3031 (antibody)
heavy: QVQLKESGPGLVQPSQTLSLTCTVSGFSLTSYHVSWVRQPPGKGLEWMGAIWTGGSIAYNSLLKSRLSISRDTSKSQVFLKMNSLQTEDTATYYCARDLSDYYSSYTSFDYWGQGVMVTVSTAETTAPSVYPLAPGTALKSNSMVTLGCLVKGYFPEPVTVTWNSGALSSGVHTFPAVLQSGLYTLTSSVTVPSSTWSSQAVTCNVAHPASSTKVDKKIVPRECNPCGCTGSEVSSVFIFPPKTKDVLTITLTPKVTCVVVDISQNDPEVRFSWFIDDVEVHTAQTHAPEKQSNSTLRSVSELPIVHRDWLNGKTFKCKVNSGAFPAPIEKSISKPEGTPRGPQVYTMAPPKEEMTQSQVSITCMVKGFYPPDIYTEWKMNGQPQENYKNTPPTMDTDGSYFLYSKLNVKKETWQQGNTFTCSVLHEGLHNHHTEKSLSHSP
light: DIQMTQSPASLSTSLGETVSIECLASEGISNDLAWYQQKSGKSPQLLIYAASRLQDGVPSRFSGSGSGTRYSLKISGMQPEDEADYFCQQSYKYPLTFGSGTKLEIKRADAAPTVSIFPPSTEQLATGGASVVCLMNNFYPRDISVKWKIDGTERRDGVLDSVTDQDSKDSTYSMSSTLSLTKADYESHNLYTCEVVHKTSSSPVVKSFNRNEC
notes: Parental rat hybridoma, rat IgG2a

ELISA signal (A450) [2]: 0.1
EC50 [3]: 3.4 nM
B4: PI-HX-3043 (antibody, rat IgG2a)
heavy: QVNLLQSRAALVKPGASVKLSCKASGYTFTDYYLHWVKQSHAKSLEWIGYINPNNAYTSYNEKFKSKATLTVDKSTNTAYMELSRLTSADSATYYCARDTTDYYNLHFAYWGQGTLVTVSSAETTAPSVYPLAPGTALKSNSMVTLGCLVKGYFPEPVTVTWNSGALSSGVHTFPAVLQSGLYTLTSSVTVPSSTWSSQAVTCNVAHPASSTKVDKKIVPRECNPCGCTGSEVSSVFIFPPKTKDVLTITLTPKVTCVVVDISQNDPEVRFSWFIDDVEVHTAQTHAPEKQSNSTLRSVSELPIVHRDWLNGKTFKCKVNSGAFPAPIEKSISKPEGTPRGPQVYTMAPPKEEMTQSQVSITCMVKGFYPPDIYTEWKMNGQPQENYKNTPPTMDTDGSYFLYSKLNVKKETWQQGNTFTCSVLHEGLHNHHTEKSLSHSP
light: B3 light with T13A, A25T, A50D, Q55E, P80T
notes: as for B3

EC50 [3]: 8.2 nM
B5: PI-HX-3061 (antibody, rat IgG2a)
heavy: EVQLVESGGGLVQPGSSLKLSCVASKFTFSNYGMNWIRQAPKKGLEWIALIYYNSNNKYYADSVKGRFTISRDNSKNTLYLEMNSLRSEDTAMYYCAKSLTGGSDYFDSWGQGVMVTVSSAETTAPSVYPLAPGTALKSNSMVTLGCLVKGYFPEPVTVTWNSGALSSGVHTFPAVLQSGLYTLTSSVTVPSSTWPSQTVTCNVAHPASSTKVDKKIVPRNCGGDCKPCICTGSEVSSVFIFPPKPKDVLTITLTPKVTCVVVDISQDDPEVHFSWFVDDVEVHTAQTRPPEEQFNSTFRSVSELPILHQDWLNGRTFRCKVTSAAFPSPIEKTISKPEGRTQVPHVYTMSPTKEEMTQNEVSITCMVKGFYPPDIYVEWQMNGQPQENYKNTPPTMDTDGSYFLYSKLNVKKEKWQQGNTFTCSVLHEGLHNHHTEKSLSHSP
light: DVQMTQSPSYLAASPGESVSISCKASKSIGTFLAWYQEKPEKTNKLLIYSGSTLQSGTPSRFSGSGSGTDFTLTIRNLEPEDFAVYYCQQHDEYPFTFGSGTKLEIKRADAAPTVSIFPPSTEQLATGGASVVCLMNNFYPRDISVKWKIDGTERRDGVLDSVTDQDSKDSTYSMSSTLSLTKADYESHNLYTCEVVHKTSSSPVVKSFNRNEC
notes: Parental rat hybridoma, rat IgG2a; cross reactive with human and mouse MARCO
